T1: Mycx2-hLepR(ecto)-GPI anchored, on HEK293/hLEPR-GPI cells (human, UniProt P48357 22-839, GPI anchor at the C-terminus)
T1 construct: also called HEK293/Mycx2-hLepR(ecto)-GPI; not shown: N-terminal myc-myc tag
T1 sequence: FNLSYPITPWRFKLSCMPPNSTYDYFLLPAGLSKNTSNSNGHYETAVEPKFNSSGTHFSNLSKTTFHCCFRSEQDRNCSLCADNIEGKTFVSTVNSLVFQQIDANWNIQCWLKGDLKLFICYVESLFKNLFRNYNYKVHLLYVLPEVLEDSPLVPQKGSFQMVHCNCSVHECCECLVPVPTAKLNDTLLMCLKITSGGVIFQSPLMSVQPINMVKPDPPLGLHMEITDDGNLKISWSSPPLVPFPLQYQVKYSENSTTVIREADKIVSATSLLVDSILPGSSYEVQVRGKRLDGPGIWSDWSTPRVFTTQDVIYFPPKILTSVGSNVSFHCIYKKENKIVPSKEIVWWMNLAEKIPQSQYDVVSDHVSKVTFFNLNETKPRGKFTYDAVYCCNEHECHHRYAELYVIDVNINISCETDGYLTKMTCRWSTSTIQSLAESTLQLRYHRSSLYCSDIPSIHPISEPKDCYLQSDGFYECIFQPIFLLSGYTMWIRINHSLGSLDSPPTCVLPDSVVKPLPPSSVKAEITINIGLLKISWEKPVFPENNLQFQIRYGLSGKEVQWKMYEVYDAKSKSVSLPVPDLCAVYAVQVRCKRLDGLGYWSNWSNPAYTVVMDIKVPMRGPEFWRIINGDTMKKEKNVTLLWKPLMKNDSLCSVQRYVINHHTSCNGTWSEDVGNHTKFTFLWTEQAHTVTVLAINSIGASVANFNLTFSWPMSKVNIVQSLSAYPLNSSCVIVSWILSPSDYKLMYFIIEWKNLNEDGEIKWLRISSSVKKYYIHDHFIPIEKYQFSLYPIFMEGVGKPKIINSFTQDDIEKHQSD

T2: human LEPR CRH1 (D1,D2,D3)-MMH (human, UniProt P48357 22-427)
T2 construct: domain: CRH1-Ig (D1,D2,D3); Limits on human LEPR cannot be told from the printed numbers; also called CRH1-Ig (D1, D2, D3); not shown: C-terminal myc-myc hexahistidine tag (amino acids 279-306 of the construct)
T2 sequence (looked up): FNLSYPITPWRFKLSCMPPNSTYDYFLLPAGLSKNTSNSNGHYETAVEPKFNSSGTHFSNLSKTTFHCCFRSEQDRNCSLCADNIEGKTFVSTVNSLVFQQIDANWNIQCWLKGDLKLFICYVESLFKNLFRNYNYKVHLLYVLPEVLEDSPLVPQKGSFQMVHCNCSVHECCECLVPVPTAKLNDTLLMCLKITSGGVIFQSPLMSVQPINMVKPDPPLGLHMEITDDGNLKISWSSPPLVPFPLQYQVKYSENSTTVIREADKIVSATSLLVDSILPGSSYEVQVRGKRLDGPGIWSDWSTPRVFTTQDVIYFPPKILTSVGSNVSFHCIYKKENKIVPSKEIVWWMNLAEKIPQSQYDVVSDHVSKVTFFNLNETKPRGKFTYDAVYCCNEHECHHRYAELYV

T3: full length human LEPR (amino acids 1-1165 of P48357, Isoform B), on cells (human, UniProt P48357 22-1165)
T3 construct: also called hLEPR-FL; HEK293/Stat3-luc/hLEPR-FL
T3 sequence: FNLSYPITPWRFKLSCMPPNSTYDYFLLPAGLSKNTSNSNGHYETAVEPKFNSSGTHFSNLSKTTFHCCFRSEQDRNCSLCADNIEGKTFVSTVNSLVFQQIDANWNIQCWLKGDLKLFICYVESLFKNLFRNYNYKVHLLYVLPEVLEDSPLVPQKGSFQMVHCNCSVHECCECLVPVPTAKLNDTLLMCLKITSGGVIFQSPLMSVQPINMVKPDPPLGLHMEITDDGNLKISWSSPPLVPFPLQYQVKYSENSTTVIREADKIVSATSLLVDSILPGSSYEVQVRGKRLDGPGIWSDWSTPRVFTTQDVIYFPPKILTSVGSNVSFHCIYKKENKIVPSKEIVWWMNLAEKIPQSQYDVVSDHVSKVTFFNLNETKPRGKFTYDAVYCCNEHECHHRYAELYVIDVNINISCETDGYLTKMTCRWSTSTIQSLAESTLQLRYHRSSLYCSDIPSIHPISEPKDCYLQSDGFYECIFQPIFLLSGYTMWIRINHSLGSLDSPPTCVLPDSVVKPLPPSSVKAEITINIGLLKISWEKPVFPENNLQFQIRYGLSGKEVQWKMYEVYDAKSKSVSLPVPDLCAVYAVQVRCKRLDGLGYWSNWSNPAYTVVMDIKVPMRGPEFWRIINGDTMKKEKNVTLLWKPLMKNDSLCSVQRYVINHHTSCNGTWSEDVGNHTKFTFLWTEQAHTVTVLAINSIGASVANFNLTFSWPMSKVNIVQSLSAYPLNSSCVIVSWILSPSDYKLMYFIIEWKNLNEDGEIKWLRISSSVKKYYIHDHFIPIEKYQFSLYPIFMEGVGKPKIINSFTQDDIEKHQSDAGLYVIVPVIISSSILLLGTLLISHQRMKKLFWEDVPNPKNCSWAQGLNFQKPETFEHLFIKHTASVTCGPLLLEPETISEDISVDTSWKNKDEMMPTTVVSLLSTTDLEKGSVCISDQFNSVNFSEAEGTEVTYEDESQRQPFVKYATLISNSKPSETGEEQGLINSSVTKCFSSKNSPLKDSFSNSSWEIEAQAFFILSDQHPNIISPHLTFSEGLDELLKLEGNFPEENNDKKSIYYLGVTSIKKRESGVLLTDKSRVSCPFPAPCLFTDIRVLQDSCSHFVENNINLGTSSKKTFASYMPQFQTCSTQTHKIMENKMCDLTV

B1: H4H16650P2 (antibody, human IgG4, V domains shown)
VH: QVQLVESGGGVVQPGKSLRLSCVASGFTFSSDAMYWVRQAPGKGLEWVAVIYYDGNYQYYEDSVKGRFTISRDNSQNTLDLQMNSLRVDDTAVYFCARLNWDYWYLDLWGRGTLVTVSS
VL: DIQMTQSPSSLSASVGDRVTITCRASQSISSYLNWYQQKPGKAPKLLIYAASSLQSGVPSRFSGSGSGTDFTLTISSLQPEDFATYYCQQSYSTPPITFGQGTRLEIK
notes: H4H prefix means human IgG4 Fc; Classed as agonist
B2: H4H16679P2 (antibody, human IgG4, V domains shown)
VH: QVQLVESGGGVVQPGRSLRLSCTASGFTFSSYAMYWVRQAPGKGLEWVSVIYYDGSYKYYADSVKGRFTISRDNSKNTLYLQMDSLRAEDTAVYYCASYNWNYWYFDFWGRGTLVTVSS
VL: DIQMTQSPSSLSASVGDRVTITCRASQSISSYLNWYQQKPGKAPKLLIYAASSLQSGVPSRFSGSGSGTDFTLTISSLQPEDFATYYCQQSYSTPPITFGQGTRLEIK
notes: human IgG4 Fc; Classed as agonist
B3: H4H17321P2 (antibody, human IgG4, V domains shown)
VH: QVQLVESGGGVVQPGRSLRLSCEASGFSSSDNAMYWVRQAPGKGLEWVSVIYHDGSYKYYEDSVKGRFTIARDNSKNTLYLQMNSLRAEDTAVYYCARYNWNHWYFDVWGRGTLVTVSS
VL: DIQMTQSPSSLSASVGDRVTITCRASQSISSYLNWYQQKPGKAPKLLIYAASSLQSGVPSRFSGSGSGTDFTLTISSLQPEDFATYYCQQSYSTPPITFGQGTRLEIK
notes: as for B2
B4: H4H17319P2 (antibody, human IgG4, V domains shown)
VH: QVQLVESGGSVVQPGRSLRLSCAASGFTFSTYAMYWVRQTPGKGLEWVAVLYSDGSNKYYIDSVKGRFTISRDTSTNTLYLQMSSLRADDSALYYCARLNWDYWYFDLWGRGTLVTVSS
VL: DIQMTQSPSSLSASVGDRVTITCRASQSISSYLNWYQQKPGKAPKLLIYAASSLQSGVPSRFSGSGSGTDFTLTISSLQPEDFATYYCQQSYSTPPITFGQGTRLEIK
notes: as for B2
B5: H4H18446P2 (antibody, human IgG4, V domains shown)
VH: EVQLVESGGGLVQPGGSLRLSCAASGFTFSNYGMTWVRQAPGKGLEWVSAITGGGGSTYYSNSVKGRFTISRDNSKNTVYLRMNSVRAEDTAVYYCAKYKWNFVDDWGQGTTVTVSS
VL: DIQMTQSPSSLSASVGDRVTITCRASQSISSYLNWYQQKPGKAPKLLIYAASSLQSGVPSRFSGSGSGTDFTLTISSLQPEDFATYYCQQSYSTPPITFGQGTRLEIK
notes: human IgG4 Fc
B6: H4H18417P2 (antibody, human IgG4, V domains shown)
VH: QVQLVESGGGVVQPGRSLRLSCAASGFTFSTYGMHWVRQAPGKGLEWVSVISYDESNKYYADSVKGRFTISRDNSKNALYLQMNSLRNEDTAVYYCARDRPFGLVTGWFDPWGQGTLVTVSS
VL: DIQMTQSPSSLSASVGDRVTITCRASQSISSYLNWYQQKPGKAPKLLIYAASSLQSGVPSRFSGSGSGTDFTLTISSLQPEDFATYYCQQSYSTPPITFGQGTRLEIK
notes: human IgG4 Fc; Classed as potentiator
B7: H4H18438P2 (antibody, human IgG4, V domains shown)
VH: QVQLVESGGGVVQPGRSLRLSCAASGFSFNTYGMHWVRQAPGKGLEWVTIIWYDGSIKYYADSVKGRFTISRDNSKNTLYLQMNSLRAEDTAVYYCARGGYSGYLYFDYWGQGTLVTVSS
VL: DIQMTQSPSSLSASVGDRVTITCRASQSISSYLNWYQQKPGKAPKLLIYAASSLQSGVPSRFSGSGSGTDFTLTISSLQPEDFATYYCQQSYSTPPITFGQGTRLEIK
notes: as for B6
B8: H4H18445P2 (antibody, human IgG4, V domains shown)
VH: QVQLQESGPGLVKPSQTLSLTCTVSGGSISSGGDYWSWIRQLPGKGLEWIGYIYYSGSAYYNPSLKSRGTISIDTSKNQFSLKLTSVTAADTAVYFCVKLRFLEWFLGGWFGPWGQGTLVTVSS
VL: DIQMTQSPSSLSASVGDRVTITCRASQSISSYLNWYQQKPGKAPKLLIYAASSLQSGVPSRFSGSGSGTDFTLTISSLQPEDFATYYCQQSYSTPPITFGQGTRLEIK
notes: human IgG4 Fc
B9: H4H18449P2 (antibody, human IgG4, V domains shown)
VH: EVQLVESGGGLVQPGGSLRLSCVASGFTFNKYDMHWVRQTTGKGLEWVSGIDTDGDTYYPGSVKGRFTISRENAENSLYLQMNGLRVGDTAVYYCARWPWSGFYGAFDIWGQGTMVTVSS
VL: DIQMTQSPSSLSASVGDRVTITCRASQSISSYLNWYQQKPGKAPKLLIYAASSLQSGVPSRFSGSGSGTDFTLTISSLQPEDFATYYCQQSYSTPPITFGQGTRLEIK
notes: human IgG4 Fc; summary lists 74/66

These binders were tested against T1, Mycx2-hLepR(ecto)-GPI anchored, on … (assay: FACS, 70 nM Ab, HEK293/hLEPR-GPI).

Binder	Binding Ratio
B1	707 fold
B2	1080 fold
B3	1130 fold
B4	1130 fold

These binders were tested against T2, human LEPR CRH1 (D1,D2,D3)-MMH (assay: Luminex, myc-captured LEPR protein).
Procedure: Aliquots of microspheres with immobilized anti-myc monoclonal antibodies, prepared as described above, were added individually to 1 mL of the each of these protein supernatants. The microspheres were gently mixed, incubated for two hours at 25° C., washed twice with 1 mL of DBPS, centrifuged to remove the supernatant and finally resuspended in 1 mL of DPBS buffer.
From this mixed pool, 75 μL of microspheres were plated per well on a 96 well filter plate (Millipore, Cat. No: MSBVN1250) and mixed with 25 μL of individual anti-human LEPR monoclonal antibodies (0.5 or 5 μg/mL), incubated for two hours at 25° C. and then washed twice with 200 μL of DPBS with 0.05% Tween 20 (washing buffer). […] The Median Fluorescence intensity (MFI) of the microspheres was measured in a Luminex Analyzer.

Binder	Luminex MFI
B5	205 MFI

The binders below were run against T3, full length human LEPR (amino acids …) (assay: FACS, 70 nM Ab, HEK293/Stat3-luc/hLEPR-FL).

Binder	Binding Ratio
B1	42 fold
B2	51 fold
B3	46 fold
B4	47 fold

Each binder was assayed against T1, Mycx2-hLepR(ecto)-GPI anchored, on … (assay: FACS, 10 nM Ab, HEK293/hLEPR-GPI, 1 uM Leptin).
Procedure: (§1) For the FACS analysis, HEK293 parental cells and HEK293/hLEPR-GPI cells were dissociated and plated onto 96-well v-bottom plates at 5×10⁵ cells/well in PBS containing 2% FBS (FACS buffer). […] Cells were subsequently fixed using BD CytoFix™ (Becton Dickinson, #554655), filtered, and analyzed on a HyperCyt Flow Cytometer (Beckman Coulter). Unstained and secondary antibody alone controls were also tested for all cell lines. The results were analyzed using ForeCyt (IntelliCyt) and FlowJo version 10 software to determine the geometric means of fluorescence for viable cells. The geometric mean of fluorescence for each sample was then normalized to the geometric mean of unstained cells to obtain relative binding per condition referred to as “binding ratios”, and these binding ratios were recorded for each antibody tested.

Binder	Binding Ratio
B1	3120 fold
B2	2220 fold
B6	2600 fold
B7	2410 fold
B8	2490 fold
B9	3110 fold

The binders below were run against T1, Mycx2-hLepR(ecto)-GPI anchored, on … (assay: FACS, 10 nM Ab, HEK293/hLEPR-GPI, no added Leptin).
Procedure: as §1

Binder	Binding Ratio
B1	2420 fold
B2	2060 fold
B6	1840 fold
B7	1490 fold
B8	2020 fold
B9	3370 fold

Each binder was assayed against T4, human LEPR extracellular domain expressed with a C-terminal myc-myc-hexahistidine tag (hLEPR.mmh) (human, UniProt P48357 22-839) (assay: SPR, mAb over preformed hLEPR-MMH:human Leptin complex).
T4 construct: also called human LEPR-MMH; monomeric human LEPR
Procedure: The entire study was performed in 10 mM HEPES pH 7.4, 150 mM NaCl, 3 mM EDTA, and 0.05% v/v Surfactant Tween-20 (HBS-ET running buffer) at 25° C.

Binder	200 nM mAb Bound (RU)
B1	81 RU
B2	90 RU
B4	92 RU
